Laboratory results: the DeepSol protein solubility set

Assay: soluble on expression in E. coli; label from the status in PepcDB or PDB records
For “MAHHHHHHMWQTVVRRYRLQPTSLAAFLESNCMVAKPPTAALHSDSNLVVAETNSLSIFENLAAEESLIRGLSLDTKQRLLLFYVNRPCVVVGRNQNIFQEVSLRRAAADGVCVARRASGGGAVFHDEGNLCFSFITHRTRYAPEKTIQLVRLGLCASYAIDPARLTTTGRHDLFLDGRKITGSAMRVQRDIAYHHCTLLVDTPHASVGRYLRPEGDYVAFKTSSVGSVRSPVTSLAESGCIADGPGAVAALKGNMADFFLAEGDRVLNAATPWELDAVELRQRFTTARHRCANAPLFALDVVGAVAADMPFIEREGRQPARGDAATLGEAVHKAASKEWAYAMPTFTSTVFLSDSELRRRLKTLSVRQHVALLCSLAEEELLAVLQRCVLEGSEGPEAVAGTEAGLHLVTTVEHRLVTSVVVRRVAPTTATASAVAPSSASSGGWVQRYLSALLVGHPCDAAIEGLECVGDTTAVVQGLVHEAGSLCPDLPDAVGDAALLMVARVLLDVWRDKNVFDIAT”, the “soluble on expression in E. coli” value was “not soluble”.
For “MGSDKIHHHHHHMEQSATPACSICFPDSICRISPSSPLASPNGDEYHMKIALLCSGLGNVQRGHEIFVRDLFDMLKGSVDITLFKGGGEPAPNELVIDNVSRNAPSLQNIHLAVSPRWKVAMQEQERIRIETETFAHAALRPLLEGGYDIIHCLEQEVCNRLYGFRHLFAHTPKFLFSNGGAIPAAKLSNCDFVQEHTEYNLQHSAREKAFCIPHGVDIQRFNPSISSDFRARYGIAEDAFVVISVGIICYWHKRMDYLIKEVAQIPEAHLLIVGQECADTPAIKALGEKLMPGRITFTKMPHDELPQAYAAADVFALGSLFETFGIVYIEALAMGLPVFCTEHPNQRSIVREGVFLDIKQAGALRDALLKRDPAQMRYLRERGPQIARETYALEKLKSAYIEHYQRIAASEVSLPRYTFKTKLQDNVRSLYRRLSRG”, the “soluble on expression in E. coli” value was “not soluble”.
With “MVFMYIGTVMVEKYNKPHLTFGDQAAQLQLRGLIINNPDDCIGALEKIGYYRLSAYWYPFRKKKPKASRTTPFNYRLDEFEPKHTFEEAVALYRFDESLRRLLLEALGVIEIQLRTKIAYFAGKQDRFIHLKRELLDPIACCRVPKNSTQDSYQIWLHKYHKQIKRAGREDFIRHYQARYGNDIPIWIATEILDFGGVSKLFDFLPKQLKNQIALSFGAKEGTVVAGWIRNFNYIRNVSAHHSRLWNRLVITRIQAPNRNVVDPSIFHLADVKNRKSP” the “soluble on expression in E. coli” value was “not soluble”.
In the case of “MVMHIKQSTVRSMLIVARRGKKRLNLDPDALAVLTALINLLAQESVARAAQSAANTGSRHVTKEHLKRVIAQLMLDFAI”, the “soluble on expression in E. coli” value is reported as “not soluble”.
For “MSLIEFNKKTNTLEQVQYKYTLQDVSEPNLYRDIFSYDEIPKCTFNHRKVPMAPPDEIWITDTTFRDGQQSRAPYTVEQIVHLYDLLHKLGGPKGIIRQCEFFLYSDRDKQAVYKCLERGYKYPEVTSWIRATKSDFQLAKDMGMKESGILVSCSDYHIFKKLNMTRKQALEHYMSIVKSAIEVGIRPRCHFEDITRADFYGFVVPFAIELRKLMEESGVPIKIRACDTLGYGVSYPGAALPRSVPGIIYGLRHYAGFPSELIEWHGHNDFYKAVCNAATAWLYGASAVNCSLLGIGERTGNTPLEAMVIEYAQLRGTTDSMDTTVITEIAEYYEKELGYQIPPRTPFVGKHFNVTQAGIHADGLLKDEEIYNIFDTAKLLNRPVGVAINQTSGLAGIAHWINSHFGLEGAKRIDKRDERIVKIKEWVDEQYKAGRVTSIGDDELEEVIRKLAPEIFDLALEGHHHHHH”, the “soluble on expression in E. coli” value was “soluble”.
In the case of “MGSDKIHHHHHHMTCRRITFVPNFMIRDARVLRAGFVPREVEHRDAEVNHLSSVLEPITNGEPADTAIVTGPSGTGKTCISQFVTERLREEVLNVEATYVNCWRNYTRFRTLYQILDDFGETIDIHRQSTPHDELIDRLQQYDGPRTVIILDEVDQLEDPGIIYDLHSLPHFAVICIANKEEDLFSRVDDRLVSRLRSSEHVRMDKYHDEQLHDILAARVKGGLDQDVITTNQLDRIADAAAGDARLAIGILRTAASKADRESRERITDDILLNAAEDARAQIKQKNLDSLIPHQRLVYDVVREHGPLGPSEIYDHYKRKVDDPRTKRTIRTYLSKMTQYNVLEAEGTSRDREYSLVDSTAPSVTQ”, the “soluble on expression in E. coli” value is reported as “not soluble”.
In the case of “SLEYNLTTKEVEMVNVTASWDEGIGELFEKVKQNDSERKMANGDDGLFFSNFSLHVTPVLKNISFKLEKGELLAIAGSTGSGKSSLLMMIMGELEPSDGKIKHSGRISYSPQVPWIMPGTIKDNIIFGLSYDEYRYTSVVNACQLEEDITVFPNKDKTVLGDGGITLSGGQRARISLARALYKDADLYLLDSPFSHLDVTTEKDIFESCLCKLMVNKTRILVTSKLEHLKKADKILLLHEGHCYFYGTFSELQGEKPDFSSQLLGSVHFDSFSAERRNSILTETFRRCSVSSGDGAGLGSEG”, the “soluble on expression in E. coli” value is reported as “soluble”.
